According to the supplement of paper PMC12042874:
± gives the uncertainty stated by the source.

Assay: amyloid nucleation score (Sup35N fusion, yeast selection) (log enrichment); library NNK1; higher = more nucleation; inactive = no reads after selection
In short: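 Three technical output replicates were used for random libraries. Psi-negative yeast expressing peptides of 20 random codons fused to Sup35N were induced with 100 μM copper sulfate for 24 hours and grown 7 days at 30°C on medium lacking adenine and uracil, and input and output plasmid inserts were Illumina-sequenced, excluding sequences with under 100 input reads. The nucleation score is the DiMSum log enrichment of output over input reads, centred on the mode score of non-aggregating sequences.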

Substance	amyloid nucleation score
VTFWHVFLIFSYLSTCAWWW	-0.382 ± 1.2
VTGWFYAGILYAFLYSQVLF	0.171 ± 1.2
VTHVFYAVLGGMRMGLNFPT	-0.192 ± 0.4
VTLSIYVNNSDGISR	0.588 ± 0.4
VTMSDLATHNYREMNSLFSF	0.091 ± 0.28
VTNPNYP	-0.696 ± 0.65
VTQFSVWLVLRICGLTLRWY	0.31 ± 1
VTSLCYRNFFGVVEVLRYCQ	0.677 ± 0.51
VTWVWFGVLVCFRRDGTLTY	0.676 ± 0.85
VVDEVNTGNHDLTTSLLQLS	-0.435 ± 0.68
VVHHEDYMRLGC	-0.948 ± 1.4
VVLCGDCFSLSLFWDCLWPF	4.38 ± 0.078
VVMEMINFHPSTLCSILQ	5.07 ± 0.11
VVNVQMNQPYMQCFPQDTR	3.93 ± 0.082
VVPFRLLDIQRNGCFDHGYP	0.142 ± 1.4
VVPPRTDSE	-0.364 ± 0.46
VVRDRNYPFYLIIGRSVVLG	5.16 ± 0.061
VVSYISPATLRTLKLEKGLS	0.029 ± 0.76
VVSYWTHYPNKSLSWASWAA	-0.671 ± 1.2
VVVFDKR	-0.041 ± 1
VVVVMRR	1.94 ± 0.23
VWFPKTDTGVTS	0.428 ± 0.34
VWLSMEFLCVYTCMPCWSQL	-0.423 ± 0.55
VWRADMCSHS	-0.17 ± 0.53
VWRLSI	-0.557 ± 0.41

Substance	amyloid nucleation score
VWRTQMFRV	0.37 ± 1.1
VWVLPRDNVFSIKNYMSFS	6.965 ± 0.045
VYAILKDFFYFFGVNFFCCF	4.18 ± 0.06
VYASLTL	-1.26 ± 1.7
VYLSYVFMYS	-0.445 ± 0.36
VYMRISFNEVMCFVCDTGSW	7.485 ± 0.046
VYMRNKEQVNIGHDTVNLSL	0.58 ± 0.43
VYRIWSSSGNYKEVYAHRAL	0.947 ± 0.93
VYYYVLSLV	0.207 ± 1.4
WADNNTSH	-0.094 ± 0.34
WCLGMWLLHVLTTETTFKCT	-0.158 ± 0.34
WEKFIVAQIMVGHFGWVFQT	5.36 ± 0.078
WEKNFKIGESRCSV	-0.554 ± 1.1
WELARVDCNWFSHFWHAYMR	inactive
WESSGFQMICRSFSFNMFSS	-0.458 ± 0.52
WEVRGHPSGLMEVRDLGVRF	0.249 ± 0.59
WFARNTLLEWEN	-1.57 ± 2.1
WFAVWRIRCVRSDVANWMLS	0.283 ± 0.37
WFFGRYHGTGQNMFRG	2.15 ± 0.18
WFFHLTNLSFCCNPLVVPRV	-0.004 ± 0.78
WFQVASRVGLKKVYWVGHLE	inactive
WFSVMLRYEY	1.71 ± 0.2
WFTPNVWAGGVWHHVLGFGG	-0.93 ± 0.65
WFYDAAFTMKVTVAIFVFFR	0.675 ± 0.71
WGRRLSR	0.122 ± 0.5

Substance	amyloid nucleation score
WGSASRLKVTLRRVRYTTTG	0.813 ± 0.71
WGVFDTETIVWFVYIGTL	-0.026 ± 0.32
WGYRHSYSVGPRW	inactive
WHDKVKDFRIRAGHLSYSRG	0.486 ± 0.63
WHILPQVWGIVHMIRSNLVC	0.99 ± 0.64
WHKLRPFEGAIKMFSAWISL	inactive
WHKMMQLSLCSEYELLFNLQ	0.51 ± 0.9
WHPAKMILEYAEVRSNL	-0.032 ± 0.39
WIEEIVCIGS	1.03 ± 0.68
WIRHSNNICMM	1.26 ± 0.18
WISFPLV	0.046 ± 0.48
WISHSVSLFVSVLGMWMSRD	-2.09 ± 2.4
WISYVQNTIYRFAFEESCLG	1.31 ± 0.43
WKCWGLCHLQR	-1 ± 0.93
WKVKLNGIG	0.341 ± 0.28
WKYVTLELIWWTTLVTAWGT	1.02 ± 0.8
WLDHEISSELAGYPLWLSAN	2.19 ± 0.17
WLDRGW	0.282 ± 0.33
WLESRQPAEESVVVWNERVG	-0.831 ± 1.3
WLGMRMVGNVVERLYSVRCQ	-0.111 ± 0.7
WLHGFKWRED	-0.541 ± 0.68
WLISFGDFDGSMFKMMSNTK	2.67 ± 0.13
WLIVIGMGRLGIVIMLGGLK	0.723 ± 0.44
WLLVQLYYVCYFGLRLEFSM	-0.237 ± 0.18
WLNHKRIVINTQLMLYSPGC	4.68 ± 0.11

Substance	amyloid nucleation score
WLVGKTCNLYDLVLASLSNG	-0.704 ± 0.4
WLWPPLACDHMPIAVSETDA	-0.775 ± 0.99
WMDNTSHRFESCEV	0.635 ± 0.55
WMLVRAACLGIKRKNG	0.759 ± 0.51
WMYRLYSISLITSDCS	0.514 ± 0.33
WMYTMTGFEVNRTVNFYWTI	-0.095 ± 0.29
WNDWSYHCNF	-0.11 ± 0.27
WNLATMVADRSPRNKLWTRP	0.397 ± 0.97
WNMLPSIPGDRGWLDGVPVV	-0.45 ± 0.39
WNNVSCIELSSVSWNPDEVG	-0.302 ± 0.3
WNPYPTCSYSPFATSGDSAF	-1.13 ± 0.76
WPGLFMIY	0.016 ± 0.49
WPGMPRS	1.17 ± 0.35
WPWCQYTYRFLSIMCKVFL	0.288 ± 0.65
WRFLLWSFHSEAYLIVYS	-0.773 ± 0.49
WRNYYHWVTFRSDRLDRWFG	1.85 ± 0.12
WRRRDRVLQCWL	inactive
WRSSWWWRCCYYSSSSMSRW	1.12 ± 0.6
WRTARFSGKF	-0.048 ± 0.4
WRVYQSFGDLAVCTF	0.326 ± 0.45
WRYRRCSYY	0.781 ± 0.47
WRYRSRCMGGVVDRLLCDVW	3.33 ± 0.076
WSHSILCIQSRSRIYPTHWL	0.495 ± 0.29
WSIDVNTTACKFFFRCSSCN	1.43 ± 0.74
WSIEWFYSMSYARIDME	-1.23 ± 0.79

Substance	amyloid nucleation score
WSINMCCMRSRLWNFDGRKE	4.04 ± 0.074
WSMLSADSRISYYIYQCSLF	2.31 ± 0.32
WSSHYVSLRKVCVCGRRPWS	3.46 ± 0.079
WSVDIGLRGLIMRMKYCEFR	-1.01 ± 0.54
WSWRRVVAWLH	0.727 ± 0.34
WSYGSEPM	inactive
WTAHSSL	1.09 ± 0.76
WTFTVVFFLKVSSL	0.81 ± 0.78
WTWILPMVRTIIYQY	-0.356 ± 0.27
WVIVASP	-1.42 ± 0.85
WVLPEAHVYGRWVT	1.06 ± 0.52
WVSNL	0.296 ± 0.44
WVTHRL	-0.715 ± 1.2
WWIGNSTRYCVGMVWSI	inactive
WWLLSLP	0.196 ± 0.26
WWVNL	0.247 ± 0.3
WWYSDMWMVSC	2.34 ± 0.46
WYIVGSFTGITLVVNLALNL	inactive
WYIVPITVNFQG	6.54 ± 0.049
WYLWHMLICLVTFRMNSFFR	0.707 ± 1
YAMNPHTDGPCTFNWVFYGK	8.094 ± 0.056
YASSYNKRCNNVMNVVW	-0.299 ± 0.25
YASTSNILLSIS	0.546 ± 0.2
YAYFVSWGVFVIENVFPYKY	-1.27 ± 0.66
YCAFTSLRIIRISNIFIRHE	inactive

Substance	amyloid nucleation score
YCCDDDGKFAWNECWDDTAR	0.102 ± 0.21
YCEYASVVLFGTELCFAWVY	0.001 ± 0.73
YCGKR	1.12 ± 0.58
YCGMCVYLISYMATFNCYYY	3.54 ± 0.1
YCKLDLPVTIEVKCSRGRMS	5.17 ± 0.08
YCKLDVAVFCVQYNMSMSEQ	5.46 ± 0.079
YCQSSWMSSFSTEFHKARLN	0.43 ± 0.39
YCSSVEVGVYLNVLICFSGL	3.18 ± 0.062
YCVSFLRSSLP	3.39 ± 0.12
YCWFFMLWEYTCWLVF	0.17 ± 0.28
YCYYYVNTCVV	2.07 ± 0.53
YDASGLWMCKERAEGFMRNV	-0.273 ± 0.95
YDDTTMYRFWLHFKM	0.638 ± 0.3
YDKFPTLVMGAKRSGWG	-0.761 ± 0.78
YDLGLIVSYDLLSVKEVPDR	1.48 ± 0.55
YDLLSLGDTTCRHSEILNRP	0.924 ± 0.63
YDLNYKDCSLRSVSSVGLQC	0.099 ± 0.19
YDNIWYKVNRAYEIRWLVGG	-0.383 ± 1.7
YDQNWMRTIDRVNH	-0.292 ± 0.5
YDRNCFGAPFNSVVQVTGKS	-0.94 ± 1
YDRNRSMPSLLRP	inactive
YDSSLMGVWMCGCIARWEVS	-1.93 ± 2.7
YDVVRSGFLGVDNITRLMPR	-0.27 ± 1.2
YDYLDALHLTEASKSGCLVN	0.423 ± 0.69
YDYSLCANIMNRYHAK	0.333 ± 0.29

Substance	amyloid nucleation score
YEMSY	-1.38 ± 2.4
YENSFGGHYSDESNTRRWEF	1.44 ± 0.36
YEQVNIRNG	0.138 ± 0.87
YERIPFLDSGTYGIYDWTAR	-0.372 ± 0.3
YFDKKLGLS	inactive
YFGVFCQRMMVTALSPKNPT	-0.369 ± 0.32
YFKSWTLNMCVGIKNK	4.66 ± 0.056
YFLICSLWPYVLPYCVCRFV	-0.728 ± 0.5
YFLLLRFY	0.094 ± 0.44
YFLRHCCPD	-1.8 ± 2.4
YFVGGF	-0.859 ± 0.91
YFYIPFNEMNRWTYCCIRWW	-0.04 ± 0.36
YGEHMLVDRCMRWVSSFYRG	1.62 ± 0.3
YGFVAYSDIVKAFGVIKSTG	-0.315 ± 0.31
YGGNL	0.169 ± 0.52
YGLPFHVPACCAYLVVCKGR	-0.018 ± 0.54
YGNFKVGFFVIRAWNWLNLI	0.319 ± 1.2
YGRVTDYCKCCVILRLSYWV	-0.993 ± 0.77
YGSSAL	-0.419 ± 0.23
YGTGMCHELCIDVTSWVMWM	-1.57 ± 0.79
YGVNHRMYSKWHSVGAWMCR	1.21 ± 0.66
YHLTQYDTMLLQYMWNHDWD	-0.707 ± 0.89
YHSSYVK	-1.36 ± 2.7
YHVMD	inactive
YIDIVGSSW	4.83 ± 0.07
